According to article PMC3931812:

What was measured:
Experiment in all cases: other fluorescence titration; Ca2+ titration at saturating CaM: 0.5 µM FRET biosensor, 2 µM X-Rhod5F, 0.1 mg/mL BSA, 0.25 mM Br2BAPTA (3 mM BAPTA and 700 µM CaM for the SMD1 biosensors), 25 mM Tris, 100 mM KCl, pH 7.5, 22°C; start nominally Ca2+-free; free Ca2+ from X-Rhod5F; EC50(Ca2+) from Hill fits
[1] = target: BSGPER_(83–93) (human) (UniProt Q99527)
[2] = target: BSGPER_(242–259) (human) (UniProt Q99527)
[3] = target: BSGPER_(330–351) (human) (UniProt Q99527)
[4] = target: BSGPER_(150–175) (human) (UniProt Q99527)

EC50(Ca2+) of complex formation, species 1 [1]: 130 nM
EC50(Ca2+) of complex formation, species 2 [1]: 3710 nM
EC50(Ca2+) of complex formation [2]: 5150 nM
EC50(Ca2+) of complex formation [3]: 750 nM
EC50(Ca2+) of complex formation [4]: 2380 nM
Substance: Calmodulin (CaM), recombinant, from the rat CaMI gene (from UniProt P0DP29 1-149) (natural protein)
